The supplement of paper PMC9112550, “Optimization of the antimicrobial peptide Bac7 by deep mutational scanning” (BMC Biology, 2022)

What follows are sequences tested on Escherichia coli TOP10 (assay: shrunken log2 fold change of peptide-encoding DNA abundance (4.5 h post-induction vs induction); higher = less antimicrobial activity (less host growth inhibition)). Settings: time post-induction: 4.5 h; library: site-saturation at positions 5, 18, 19, 20.
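Also: peptides expressed intracellularly from a pBAD plasmid library in pooled LB shake-flask culture, induced with 0.3% L-arabinose, DNA abundance read by NGS, three biological replicates, DESeq2 with apeglm shrinkage.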

Sequence	shrunken log2 fold change
RRIRVRPPRLPRPRPRPSWSPRP	0.0478
RRIRLRPPRLPRPRPRPMEFPRP	-0.00133
RRIRKRPPRLPRPRPRPFAVPRP	-0.14
RRIRARPPRLPRPRPRPSWMPRP	-0.131
RRIRDRPPRLPRPRPRPAGLPRP	0.0252
RRIRDRPPRLPRPRPRPDLTPRP	0.00118
RRIRWRPPRLPRPRPRPYFFPRP	-0.245
RRIRTRPPRLPRPRPRPRYMPRP	-0.62
RRIRLRPPRLPRPRPRPIDEPRP	-0.178
RRIRGRPPRLPRPRPRPCEGPRP	0.364
RRIRKRPPRLPRPRPRPLGLPRP	0.159
RRIRFRPPRLPRPRPRPLRPPRP	0.932
RRIRFRPPRLPRPRPRPAEEPRP	0.105
RRIRGRPPRLPRPRPRPYEHPRP	0.256
RRIRSRPPRLPRPRPRPGLNPRP	-0.207
RRIRHRPPRLPRPRPRPYFTPRP	-0.679
RRIRHRPPRLPRPRPRPMGCPRP	-0.000946
RRIRIRPPRLPRPRPRPTWKPRP	-0.0541
RRIRNRPPRLPRPRPRPSPFPRP	-0.287
RRIRCRPPRLPRPRPRPMCWPRP	0.0297
RRIRDRPPRLPRPRPRPITRPRP	0.0173
RRIRVRPPRLPRPRPRPYRFPRP	-0.0944
RRIRDRPPRLPRPRPRPWSVPRP	0.0902
RRIRGRPPRLPRPRPRPNPMPRP	0.17
RRIRSRPPRLPRPRPRPYSWPRP	-0.244

Sequence	shrunken log2 fold change
RRIRRRPPRLPRPRPRPFSCPRP	0.082
RRIRARPPRLPRPRPRPNLRPRP	0.022
RRIRKRPPRLPRPRPRPFYFPRP	0.00515
RRIRHRPPRLPRPRPRPFGAPRP	-0.0114
RRIRTRPPRLPRPRPRPSWTPRP	-0.468
RRIRTRPPRLPRPRPRPRRTPRP	0.338
RRIRQRPPRLPRPRPRPSMQPRP	-0.0429
RRIRNRPPRLPRPRPRPDLVPRP	-0.15
RRIRMRPPRLPRPRPRPGDWPRP	1.33
RRIRKRPPRLPRPRPRPYWFPRP	0.00102
RRIRFRPPRLPRPRPRPRWAPRP	0.305
RRIRRRPPRLPRPRPRPYIKPRP	-0.509
RRIRPRPPRLPRPRPRPMGDPRP	0.234
RRIRFRPPRLPRPRPRPSTGPRP	-0.787
RRIRKRPPRLPRPRPRPHLQPRP	0.224
RRIRWRPPRLPRPRPRPARCPRP	0.209
RRIRKRPPRLPRPRPRPVATPRP	0.635
RRIRCRPPRLPRPRPRPWNLPRP	-0.19
RRIRNRPPRLPRPRPRPNCHPRP	0.0111
RRIRQRPPRLPRPRPRPYTKPRP	-0.111
RRIRCRPPRLPRPRPRPCDLPRP	3.04
RRIRRRPPRLPRPRPRPFFWPRP	0.381
RRIRARPPRLPRPRPRPALDPRP	0.756
RRIRHRPPRLPRPRPRPETTPRP	0.194
RRIRVRPPRLPRPRPRPGCQPRP	-0.0161

Sequence	shrunken log2 fold change
RRIRNRPPRLPRPRPRPSKCPRP	-0.126
RRIRHRPPRLPRPRPRPPMNPRP	-0.543
RRIRVRPPRLPRPRPRPGLIPRP	-0.359
RRIRWRPPRLPRPRPRPKEYPRP	0.02
RRIRHRPPRLPRPRPRPWRHPRP	-0.00865
RRIRGRPPRLPRPRPRPKKYPRP	0.119
RRIRIRPPRLPRPRPRPPAAPRP	0.458
RRIRERPPRLPRPRPRPRHCPRP	-0.133
RRIRVRPPRLPRPRPRPSMFPRP	-0.245
RRIRMRPPRLPRPRPRPQAQPRP	0.299
RRIRCRPPRLPRPRPRPGPNPRP	0.296
RRIRWRPPRLPRPRPRPQGIPRP	0.102
RRIRHRPPRLPRPRPRPVSMPRP	-0.0784
RRIRKRPPRLPRPRPRPGFHPRP	0.206
RRIRNRPPRLPRPRPRPPYIPRP	-0.335
RRIRDRPPRLPRPRPRPGNIPRP	-0.0319
RRIRIRPPRLPRPRPRPCYRPRP	-0.44
RRIRYRPPRLPRPRPRPQIAPRP	-0.242
RRIRVRPPRLPRPRPRPGLMPRP	0.0219
RRIRNRPPRLPRPRPRPTDHPRP	-0.383
RRIRERPPRLPRPRPRPTEDPRP	-0.317
RRIRFRPPRLPRPRPRPTQQPRP	0.312
RRIRERPPRLPRPRPRPGKEPRP	0.0125
RRIRPRPPRLPRPRPRPYPPPRP	-0.537
RRIRPRPPRLPRPRPRPSVEPRP	-0.00032

Sequence	shrunken log2 fold change
RRIRQRPPRLPRPRPRPSIWPRP	-0.0257
RRIRERPPRLPRPRPRPWDKPRP	-0.00884
RRIRQRPPRLPRPRPRPIFGPRP	-0.00652
RRIRLRPPRLPRPRPRPQERPRP	-0.839
RRIRKRPPRLPRPRPRPNQMPRP	0.234
RRIRLRPPRLPRPRPRPFLCPRP	-0.353
RRIRGRPPRLPRPRPRPMLTPRP	1.04
RRIRVRPPRLPRPRPRPYYEPRP	-0.632
RRIRQRPPRLPRPRPRPCMGPRP	-0.124
RRIRYRPPRLPRPRPRPMFMPRP	-1.22
RRIRKRPPRLPRPRPRPTEDPRP	1.03
RRIRARPPRLPRPRPRPFQSPRP	0.105
RRIRFRPPRLPRPRPRPMMFPRP	0.126
RRIRHRPPRLPRPRPRPTKPPRP	0.0121
RRIRMRPPRLPRPRPRPDCWPRP	1.96
RRIRVRPPRLPRPRPRPGFWPRP	0.587
RRIRERPPRLPRPRPRPTDLPRP	0.15
RRIRWRPPRLPRPRPRPWLPPRP	-0.188
RRIRRRPPRLPRPRPRPQGYPRP	-0.0842
RRIRGRPPRLPRPRPRPRRMPRP	0.706
RRIRERPPRLPRPRPRPQYHPRP	-0.172
RRIRTRPPRLPRPRPRPDFSPRP	-0.0283
RRIRFRPPRLPRPRPRPAVRPRP	-0.0627
RRIRLRPPRLPRPRPRPDHAPRP	0.0162
RRIRDRPPRLPRPRPRPDCCPRP	-0.0205

Sequence	shrunken log2 fold change
RRIRLRPPRLPRPRPRPNWNPRP	-0.386
RRIRIRPPRLPRPRPRPNVPPRP	0.0631
RRIRGRPPRLPRPRPRPPILPRP	-0.0529
RRIRERPPRLPRPRPRPELIPRP	0.0254
RRIRTRPPRLPRPRPRPFEYPRP	-0.0571
RRIRCRPPRLPRPRPRPVVDPRP	-0.15
RRIRSRPPRLPRPRPRPKAIPRP	0.119
RRIRQRPPRLPRPRPRPVERPRP	-0.0839
RRIRQRPPRLPRPRPRPEERPRP	0.104
RRIRMRPPRLPRPRPRPFGKPRP	0.129
RRIRFRPPRLPRPRPRPKEEPRP	0.0372
RRIRMRPPRLPRPRPRPLYKPRP	-0.134
RRIRMRPPRLPRPRPRPAKFPRP	0.0548
RRIRIRPPRLPRPRPRPMNQPRP	-0.169
RRIRSRPPRLPRPRPRPTMCPRP	-0.0421
RRIRNRPPRLPRPRPRPVMMPRP	-0.198
RRIRNRPPRLPRPRPRPMATPRP	-0.0123
RRIRDRPPRLPRPRPRPYMVPRP	0.0212
RRIRYRPPRLPRPRPRPAGWPRP	0.366
RRIRCRPPRLPRPRPRPNLPPRP	0.649
RRIRSRPPRLPRPRPRPHWTPRP	-0.0566
RRIRNRPPRLPRPRPRPWREPRP	0.262
RRIRWRPPRLPRPRPRPHQTPRP	0.0649
RRIRKRPPRLPRPRPRPESMPRP	0.603
RRIRVRPPRLPRPRPRPQWLPRP	0.188

Sequence	shrunken log2 fold change
RRIRSRPPRLPRPRPRPYQPPRP	-0.161
RRIRWRPPRLPRPRPRPFAKPRP	0.382
RRIRMRPPRLPRPRPRPSKVPRP	0.167
RRIRGRPPRLPRPRPRPWRPPRP	0.376
RRIRMRPPRLPRPRPRPVGVPRP	0.806
RRIRDRPPRLPRPRPRPAPNPRP	0.138
RRIRWRPPRLPRPRPRPSVRPRP	0.117
RRIRARPPRLPRPRPRPCCQPRP	0.102
RRIRKRPPRLPRPRPRPGSAPRP	0.843
RRIRWRPPRLPRPRPRPYTMPRP	-0.335
RRIRVRPPRLPRPRPRPNWNPRP	-0.318
RRIRDRPPRLPRPRPRPGYTPRP	-0.127
RRIRERPPRLPRPRPRPISRPRP	-0.0122
RRIRPRPPRLPRPRPRPSCTPRP	-0.221
RRIRGRPPRLPRPRPRPQSIPRP	0.108
RRIRWRPPRLPRPRPRPNHMPRP	-0.227
RRIRLRPPRLPRPRPRPPCWPRP	0.16
RRIRYRPPRLPRPRPRPWANPRP	-0.176
RRIRYRPPRLPRPRPRPFENPRP	-0.257
RRIRSRPPRLPRPRPRPLMSPRP	-0.0126
RRIRCRPPRLPRPRPRPFQGPRP	0.203
RRIRNRPPRLPRPRPRPFTKPRP	-0.0763
RRIRFRPPRLPRPRPRPNWYPRP	-0.542
RRIRFRPPRLPRPRPRPPWFPRP	0.033
RRIRLRPPRLPRPRPRPCSLPRP	0.00822
